B1: H183/L072 VL T31Y (antibody, name in Kabat numbering, V domains shown)
VH: QVQLVESGGGLVQPGRSLRLSCAASGFTFSNAWMHWVRQAPGKGLEWVAQIKDKGNAYAAYYAPSVKGRFTISRDDSKNSIYLQMNSLKTEDTAVYYCHYVHYASASTVLPAFGVDAWGQGTTVTVSS
VL: DIVMTQSPLSLPVTPGEPASISCQASQELVHMNRNYYLHWYQQKPGQAPRLLIYKVSNRFPGVPDRFSGSGSGTDFTLKISRVEAEDVGVYYCAQGTSVPFTFGQGTKLEIK
B2: H183/L072 VL Q90I (antibody, name in Kabat numbering, V domains shown)
VH: QVQLVESGGGLVQPGRSLRLSCAASGFTFSNAWMHWVRQAPGKGLEWVAQIKDKGNAYAAYYAPSVKGRFTISRDDSKNSIYLQMNSLKTEDTAVYYCHYVHYASASTVLPAFGVDAWGQGTTVTVSS
VL: DIVMTQSPLSLPVTPGEPASISCQASQELVHMNRNTYLHWYQQKPGQAPRLLIYKVSNRFPGVPDRFSGSGSGTDFTLKISRVEAEDVGVYYCAIGTSVPFTFGQGTKLEIK
B3: H183/L072 VL T92I (antibody, name in Kabat numbering, V domains shown)
VH: QVQLVESGGGLVQPGRSLRLSCAASGFTFSNAWMHWVRQAPGKGLEWVAQIKDKGNAYAAYYAPSVKGRFTISRDDSKNSIYLQMNSLKTEDTAVYYCHYVHYASASTVLPAFGVDAWGQGTTVTVSS
VL: DIVMTQSPLSLPVTPGEPASISCQASQELVHMNRNTYLHWYQQKPGQAPRLLIYKVSNRFPGVPDRFSGSGSGTDFTLKISRVEAEDVGVYYCAQGISVPFTFGQGTKLEIK
B4: H183/L072 VL L33Y (antibody, name in Kabat numbering, V domains shown)
VH: QVQLVESGGGLVQPGRSLRLSCAASGFTFSNAWMHWVRQAPGKGLEWVAQIKDKGNAYAAYYAPSVKGRFTISRDDSKNSIYLQMNSLKTEDTAVYYCHYVHYASASTVLPAFGVDAWGQGTTVTVSS
VL: DIVMTQSPLSLPVTPGEPASISCQASQELVHMNRNTYYHWYQQKPGQAPRLLIYKVSNRFPGVPDRFSGSGSGTDFTLKISRVEAEDVGVYYCAQGTSVPFTFGQGTKLEIK
B5: H183/L072 VL K50I (antibody, name in Kabat numbering, V domains shown)
VH: QVQLVESGGGLVQPGRSLRLSCAASGFTFSNAWMHWVRQAPGKGLEWVAQIKDKGNAYAAYYAPSVKGRFTISRDDSKNSIYLQMNSLKTEDTAVYYCHYVHYASASTVLPAFGVDAWGQGTTVTVSS
VL: DIVMTQSPLSLPVTPGEPASISCQASQELVHMNRNTYLHWYQQKPGQAPRLLIYIVSNRFPGVPDRFSGSGSGTDFTLKISRVEAEDVGVYYCAQGTSVPFTFGQGTKLEIK
B6: H183/L072 VL Q90A (antibody, name in Kabat numbering, V domains shown)
VH: QVQLVESGGGLVQPGRSLRLSCAASGFTFSNAWMHWVRQAPGKGLEWVAQIKDKGNAYAAYYAPSVKGRFTISRDDSKNSIYLQMNSLKTEDTAVYYCHYVHYASASTVLPAFGVDAWGQGTTVTVSS
VL: DIVMTQSPLSLPVTPGEPASISCQASQELVHMNRNTYLHWYQQKPGQAPRLLIYKVSNRFPGVPDRFSGSGSGTDFTLKISRVEAEDVGVYYCAAGTSVPFTFGQGTKLEIK
B7: H183/L072 VL P95I (antibody, name in Kabat numbering, V domains shown)
VH: QVQLVESGGGLVQPGRSLRLSCAASGFTFSNAWMHWVRQAPGKGLEWVAQIKDKGNAYAAYYAPSVKGRFTISRDDSKNSIYLQMNSLKTEDTAVYYCHYVHYASASTVLPAFGVDAWGQGTTVTVSS
VL: DIVMTQSPLSLPVTPGEPASISCQASQELVHMNRNTYLHWYQQKPGQAPRLLIYKVSNRFPGVPDRFSGSGSGTDFTLKISRVEAEDVGVYYCAQGTSVIFTFGQGTKLEIK
B8: H183/L072 VL G91I (antibody, name in Kabat numbering, V domains shown)
VH: QVQLVESGGGLVQPGRSLRLSCAASGFTFSNAWMHWVRQAPGKGLEWVAQIKDKGNAYAAYYAPSVKGRFTISRDDSKNSIYLQMNSLKTEDTAVYYCHYVHYASASTVLPAFGVDAWGQGTTVTVSS
VL: DIVMTQSPLSLPVTPGEPASISCQASQELVHMNRNTYLHWYQQKPGQAPRLLIYKVSNRFPGVPDRFSGSGSGTDFTLKISRVEAEDVGVYYCAQITSVPFTFGQGTKLEIK
B9: H183/L072 VL P95A (antibody, name in Kabat numbering, V domains shown)
VH: QVQLVESGGGLVQPGRSLRLSCAASGFTFSNAWMHWVRQAPGKGLEWVAQIKDKGNAYAAYYAPSVKGRFTISRDDSKNSIYLQMNSLKTEDTAVYYCHYVHYASASTVLPAFGVDAWGQGTTVTVSS
VL: DIVMTQSPLSLPVTPGEPASISCQASQELVHMNRNTYLHWYQQKPGQAPRLLIYKVSNRFPGVPDRFSGSGSGTDFTLKISRVEAEDVGVYYCAQGTSVAFTFGQGTKLEIK
B10: H183/L072 VL K50A (antibody, name in Kabat numbering, V domains shown)
VH: QVQLVESGGGLVQPGRSLRLSCAASGFTFSNAWMHWVRQAPGKGLEWVAQIKDKGNAYAAYYAPSVKGRFTISRDDSKNSIYLQMNSLKTEDTAVYYCHYVHYASASTVLPAFGVDAWGQGTTVTVSS
VL: DIVMTQSPLSLPVTPGEPASISCQASQELVHMNRNTYLHWYQQKPGQAPRLLIYAVSNRFPGVPDRFSGSGSGTDFTLKISRVEAEDVGVYYCAQGTSVPFTFGQGTKLEIK
B11: H183/L072 VL F96A (antibody, name in Kabat numbering, V domains shown)
VH: QVQLVESGGGLVQPGRSLRLSCAASGFTFSNAWMHWVRQAPGKGLEWVAQIKDKGNAYAAYYAPSVKGRFTISRDDSKNSIYLQMNSLKTEDTAVYYCHYVHYASASTVLPAFGVDAWGQGTTVTVSS
VL: DIVMTQSPLSLPVTPGEPASISCQASQELVHMNRNTYLHWYQQKPGQAPRLLIYKVSNRFPGVPDRFSGSGSGTDFTLKISRVEAEDVGVYYCAQGTSVPATFGQGTKLEIK
B12: H183/L072 VL N53I (antibody, name in Kabat numbering, V domains shown)
VH: QVQLVESGGGLVQPGRSLRLSCAASGFTFSNAWMHWVRQAPGKGLEWVAQIKDKGNAYAAYYAPSVKGRFTISRDDSKNSIYLQMNSLKTEDTAVYYCHYVHYASASTVLPAFGVDAWGQGTTVTVSS
VL: DIVMTQSPLSLPVTPGEPASISCQASQELVHMNRNTYLHWYQQKPGQAPRLLIYKVSIRFPGVPDRFSGSGSGTDFTLKISRVEAEDVGVYYCAQGTSVPFTFGQGTKLEIK
B13: H183/L072 VL A89I (antibody, name in Kabat numbering, V domains shown)
VH: QVQLVESGGGLVQPGRSLRLSCAASGFTFSNAWMHWVRQAPGKGLEWVAQIKDKGNAYAAYYAPSVKGRFTISRDDSKNSIYLQMNSLKTEDTAVYYCHYVHYASASTVLPAFGVDAWGQGTTVTVSS
VL: DIVMTQSPLSLPVTPGEPASISCQASQELVHMNRNTYLHWYQQKPGQAPRLLIYKVSNRFPGVPDRFSGSGSGTDFTLKISRVEAEDVGVYYCIQGTSVPFTFGQGTKLEIK
B14: H183/L072 VL G91A (antibody, name in Kabat numbering, V domains shown)
VH: QVQLVESGGGLVQPGRSLRLSCAASGFTFSNAWMHWVRQAPGKGLEWVAQIKDKGNAYAAYYAPSVKGRFTISRDDSKNSIYLQMNSLKTEDTAVYYCHYVHYASASTVLPAFGVDAWGQGTTVTVSS
VL: DIVMTQSPLSLPVTPGEPASISCQASQELVHMNRNTYLHWYQQKPGQAPRLLIYKVSNRFPGVPDRFSGSGSGTDFTLKISRVEAEDVGVYYCAQATSVPFTFGQGTKLEIK

These results are taken from patent US20210388087A1.

For this test, the target named is Human CD3eg linker (human). The test is described as follows: SPR; fold vs parent H183/L072. (In general: In SPR one partner is held on a chip, and binding of the other changes the refractive index at the surface.)
Sequence of Human CD3eg linker (human) (chain, as listed by the source limits assumed): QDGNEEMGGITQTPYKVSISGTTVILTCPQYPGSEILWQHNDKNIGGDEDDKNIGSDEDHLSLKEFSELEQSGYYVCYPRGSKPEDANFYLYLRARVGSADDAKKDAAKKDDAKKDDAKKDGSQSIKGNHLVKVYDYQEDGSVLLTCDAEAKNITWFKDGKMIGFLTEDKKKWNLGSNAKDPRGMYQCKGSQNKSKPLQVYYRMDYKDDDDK
As to B1, the fold change of affinity worked out at 0 fold. With B2 the figure was 0 fold; with B3, 0 fold. For B4, the fold change of affinity came out at 0 fold. For the molecule B5, the fold change of affinity stood at 0 fold. Turning to B6, the fold change of affinity was determined as 0 fold. Turning to B7, the fold change of affinity is 0 fold. With B8 the figure was 0 fold; with B9, 0 fold; with B10, 0 fold. Consider B11, for which the fold change of affinity was determined as 0 fold. Take B12: the fold change of affinity was found to be 0 fold. In the case of B13, the fold change of affinity worked out at 0 fold. Turning to B14, the fold change of affinity came out at 0 fold.
